Source: the supplement of paper PMC10065799, “High-throughput profiling of sequence recognition by tyrosine kinases and SH2 domains using bacterial peptide display” (eLife, 2023)

What follows are sequences tested against Grb2 SH2 (UniProt P62993) (assay: SH2 binding enrichment of the phosphorylated peptide, bacterial display (enrichment ratio); higher = better substrate or ligand; peptides without Tyr show the background).
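Note: peptide library displayed on the E. coli surface as eCPX fusions, selected cells deep-sequenced, score is each peptide's frequency after selection divided by its frequency in the input.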

Grb2 SH2, sequence (P62993 whole entry, looked up, the tested form may be a part): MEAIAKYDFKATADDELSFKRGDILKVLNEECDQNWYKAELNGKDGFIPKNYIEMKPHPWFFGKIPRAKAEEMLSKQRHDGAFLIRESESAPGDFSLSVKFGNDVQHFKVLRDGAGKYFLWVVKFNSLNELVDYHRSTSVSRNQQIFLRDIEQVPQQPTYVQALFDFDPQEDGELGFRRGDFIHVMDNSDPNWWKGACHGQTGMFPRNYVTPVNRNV

Sequence | SH2 binding enrichment
CNTIHYNFMCN [TP53_Y234_T230N_YF] | 1.41
ALWYIYSHTRS [ENG_Y614] | 0.931
RSFSPYDFQPC [TNS1_Y796_YF] | 0.744
NAMRRHIEEFQ [MNS1_Y244_Y244H] | 0.676
HGAKVYIDPFT [EPHB4_Y590_T587A] | 0.712
LGGSPYPRVPV [FGFR1_Y701_G703R] | 0.784
LSQQVYRVNLS [FAT4_Y480_F475L] | 0.764
RPFVFYFSFLL [PTEN_Y177_R173P_YF] | 2.27
IHADICRWFNI [MARS1_Y344_Y344C] | 0.779
ESPGLYGFLNV [BCR_Y910] | 0.822
FKPGFYNLKEK [LAMA1_Y490_C485Y_YF] | 0.915
DAICFYRMENA [NPHS2_Y195_YF] | 0.785
WFKKFYDANYD [MAPRE2_Y158] | 0.82
AHAGEYGVEAL [HBA1_Y25_A27V] | 0.872
TVMGLYQKSSL [MYH7_Y609_V606M] | 0.84
PFTRNYYVWAV [CYBA_Y87_R90W] | 1.32
GSETPYMDRTP [ESS2_Y335_V336M] | 1.05
REVKAYGAGLL [TH_Y419_G414R] | 0.786
HELYVYKSDEN [DOCK3_Y548_C550S] | 1.04
IIEDPYFGNDS [ACP1_Y132_YF] | 0.946
RSHLSYDVTPE [IQGAP3_Y1098_P1097S] | 0.951
RLQAAYNLVKR [PFKM_Y103_R100Q] | 1.86
IVFVICDEVVK [SLC25A1_Y297_Y297C] | 1.12
SSEFHCVGGFF [CTSC_Y347_Y347C_YF] | 0.883
QEIATYRRLQE [KRT14_Y415_L419Q] | 0.702
AHAGKYGAEAL [HBA1_Y25_E24K] | 0.818
PGVDIYISPNM [PADI3_Y51] | 0.728
MEFAKYGSLRG [RET_Y809_V804M_YF] | 1
VDSNPYSHLMA [UBA5_Y53_R55H] | 0.813

Each sequence was assayed against c-Src SH2 in the same assay as above.

Sequence | SH2 binding enrichment
CNTIHYNFMCN [TP53_Y234_T230N_YF] | 2.09
ALWYIYSHTRS [ENG_Y614] | 0.451
RSFSPYDFQPC [TNS1_Y796_YF] | 0.668
NAMRRHIEEFQ [MNS1_Y244_Y244H] | 0.435
HGAKVYIDPFT [EPHB4_Y590_T587A] | 0.592
LGGSPYPRVPV [FGFR1_Y701_G703R] | 0.469
LSQQVYRVNLS [FAT4_Y480_F475L] | 0.422
RPFVFYFSFLL [PTEN_Y177_R173P_YF] | 0.918
IHADICRWFNI [MARS1_Y344_Y344C] | 0.526
ESPGLYGFLNV [BCR_Y910] | 0.479
FKPGFYNLKEK [LAMA1_Y490_C485Y_YF] | 0.383
DAICFYRMENA [NPHS2_Y195_YF] | 0.56
WFKKFYDANYD [MAPRE2_Y158] | 0.581
AHAGEYGVEAL [HBA1_Y25_A27V] | 0.493
TVMGLYQKSSL [MYH7_Y609_V606M] | 0.377
PFTRNYYVWAV [CYBA_Y87_R90W] | 0.899
GSETPYMDRTP [ESS2_Y335_V336M] | 0.49
REVKAYGAGLL [TH_Y419_G414R] | 0.618
HELYVYKSDEN [DOCK3_Y548_C550S] | 0.584
IIEDPYFGNDS [ACP1_Y132_YF] | 0.541
RSHLSYDVTPE [IQGAP3_Y1098_P1097S] | 0.555
RLQAAYNLVKR [PFKM_Y103_R100Q] | 1.51
IVFVICDEVVK [SLC25A1_Y297_Y297C] | 0.734
SSEFHCVGGFF [CTSC_Y347_Y347C_YF] | 0.373
QEIATYRRLQE [KRT14_Y415_L419Q] | 0.475
AHAGKYGAEAL [HBA1_Y25_E24K] | 0.452
PGVDIYISPNM [PADI3_Y51] | 0.366
MEFAKYGSLRG [RET_Y809_V804M_YF] | 0.453
VDSNPYSHLMA [UBA5_Y53_R55H] | 1.59
